Values quoted from earlier work, collected in PMC4536614.

Target: C3d C3d (Homo sapiens) (UniProt P01024)
Sequence (P01024 1002-1303): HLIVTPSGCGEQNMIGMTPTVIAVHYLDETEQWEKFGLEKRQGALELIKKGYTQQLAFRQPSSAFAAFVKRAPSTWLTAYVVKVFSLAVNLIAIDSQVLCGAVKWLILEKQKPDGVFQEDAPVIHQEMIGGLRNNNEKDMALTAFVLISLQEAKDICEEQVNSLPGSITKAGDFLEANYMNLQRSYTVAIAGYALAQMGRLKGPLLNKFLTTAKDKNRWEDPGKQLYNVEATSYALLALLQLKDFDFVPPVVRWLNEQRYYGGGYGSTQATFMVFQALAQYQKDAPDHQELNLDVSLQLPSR

complement receptor 2 (CR2), sequence (P20023 21-971): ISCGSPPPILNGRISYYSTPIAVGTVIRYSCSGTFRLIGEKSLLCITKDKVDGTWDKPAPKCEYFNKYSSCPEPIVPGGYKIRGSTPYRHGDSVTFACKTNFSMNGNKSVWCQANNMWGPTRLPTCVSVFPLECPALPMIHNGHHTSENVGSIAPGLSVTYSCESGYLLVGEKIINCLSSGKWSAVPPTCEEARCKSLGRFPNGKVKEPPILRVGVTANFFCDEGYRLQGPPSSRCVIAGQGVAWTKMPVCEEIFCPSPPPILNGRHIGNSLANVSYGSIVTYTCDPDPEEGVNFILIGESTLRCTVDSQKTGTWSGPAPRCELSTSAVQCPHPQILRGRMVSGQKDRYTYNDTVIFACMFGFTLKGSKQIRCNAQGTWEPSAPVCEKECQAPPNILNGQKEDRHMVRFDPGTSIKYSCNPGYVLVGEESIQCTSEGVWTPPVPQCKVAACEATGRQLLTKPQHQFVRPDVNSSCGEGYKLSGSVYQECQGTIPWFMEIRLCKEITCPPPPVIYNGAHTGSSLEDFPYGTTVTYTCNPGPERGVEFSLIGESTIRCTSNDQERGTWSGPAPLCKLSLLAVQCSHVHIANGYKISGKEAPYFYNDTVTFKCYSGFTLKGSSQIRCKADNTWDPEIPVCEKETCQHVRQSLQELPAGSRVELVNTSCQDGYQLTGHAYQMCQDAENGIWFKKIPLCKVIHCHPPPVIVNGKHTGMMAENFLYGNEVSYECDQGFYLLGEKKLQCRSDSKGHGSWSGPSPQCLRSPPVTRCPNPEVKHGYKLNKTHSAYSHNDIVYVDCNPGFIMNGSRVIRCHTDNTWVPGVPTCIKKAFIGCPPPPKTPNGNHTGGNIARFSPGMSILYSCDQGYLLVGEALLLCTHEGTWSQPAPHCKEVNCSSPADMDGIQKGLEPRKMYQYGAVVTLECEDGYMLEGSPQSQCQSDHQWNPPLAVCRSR

Kd: 500 nM
Substance: complement receptor 2 (CR2) (from UniProt P20023)
